From patent US8440788B2, “N-terminal VDAC variants and uses thereof” (Ben-Gurion University of The Negev Research and Development …, priority 2006, dated 2013)
Blank lines part the entries; values can stand above or below the molecule they belong to.

Legend:
[1] = system: hVDAC1-shRNA-T-REx-293 cells; assay: Apoptosis induced by various stimuli in cells expressing native or truncated mVDAC1; type: cell-based, human; settings: for cell death in cells expressing native mVDAC1: hVDAC1-shRNA-T-REx-293 cells expressing mVDAC1
Protocol: (§1) Apoptotic cell death was analyzed by Acridine Orange/Ethidium Bromide staining.
(§2) T-REx-293 cells correspond to a transformed primary human embryonal kidney cell line, expressing the tetracycline repressor. hVDAC1-shRNA T-REx-293 cells stably expressing the pSUPERretro plasmid encoding shRNA targeting hVDAC1 were obtained and grown as described previously (Abu-Hamad et al. (2006), supra). […] Cell viability was analyzed by staining with acridine orange and ethidium bromide in PBS (Zaid et al. (2005). Cell death and differentiation, 12, 751-760). Images were recorded using Zeiss LSM510 confocal or Olympus IX51 fluorescence microscopes. Mitochondria preparation and measurements of ATP levels and Ca^+ accumulation were carried out as previously described (Abu-Hamad et al. (2006), supra).

Bcl2 = Bcl2 (Homo sapiens, UniProt P10415); assay: Real time surface plasmon resonance, immobilized Bcl2; type: binding; settings: SPR, increasing peptide concentrations
Protocol: (§3) Surface plasmon resonance (SPR) using the ProteOn-XPR36 (Bio-Rad, USA) system was employed to study the interaction of VDAC1 N-terminal peptides with purified HK-I and Bcl2. Purified rat brain HK-I, recombinant Bcl2 and rabbit IgG were immobilized on a CM5 sensor surface according to the manufacture's instructions. N-terminal VDAC1 peptides were diluted in running buffer (150 mM NaCl, 0.005% Tween-20, 4% (V/V) DMSO, 10 mM PBS, pH, 7.4) and injected onto the sensor chip at varying concentrations at a flow rate of 40 μl/min at 25° C.

HK-I [2] = molecular target: T1, HK-I (Rattus norvegicus, UniProt P05708); assay: Real time surface plasmon resonance, immobilized HK-I; type: binding; settings: SPR, increasing peptide concentrations
T1 construct: Purified rat brain HK-I; from tissue; host or cells: rat brain
T1 sequence (P05708 1-918): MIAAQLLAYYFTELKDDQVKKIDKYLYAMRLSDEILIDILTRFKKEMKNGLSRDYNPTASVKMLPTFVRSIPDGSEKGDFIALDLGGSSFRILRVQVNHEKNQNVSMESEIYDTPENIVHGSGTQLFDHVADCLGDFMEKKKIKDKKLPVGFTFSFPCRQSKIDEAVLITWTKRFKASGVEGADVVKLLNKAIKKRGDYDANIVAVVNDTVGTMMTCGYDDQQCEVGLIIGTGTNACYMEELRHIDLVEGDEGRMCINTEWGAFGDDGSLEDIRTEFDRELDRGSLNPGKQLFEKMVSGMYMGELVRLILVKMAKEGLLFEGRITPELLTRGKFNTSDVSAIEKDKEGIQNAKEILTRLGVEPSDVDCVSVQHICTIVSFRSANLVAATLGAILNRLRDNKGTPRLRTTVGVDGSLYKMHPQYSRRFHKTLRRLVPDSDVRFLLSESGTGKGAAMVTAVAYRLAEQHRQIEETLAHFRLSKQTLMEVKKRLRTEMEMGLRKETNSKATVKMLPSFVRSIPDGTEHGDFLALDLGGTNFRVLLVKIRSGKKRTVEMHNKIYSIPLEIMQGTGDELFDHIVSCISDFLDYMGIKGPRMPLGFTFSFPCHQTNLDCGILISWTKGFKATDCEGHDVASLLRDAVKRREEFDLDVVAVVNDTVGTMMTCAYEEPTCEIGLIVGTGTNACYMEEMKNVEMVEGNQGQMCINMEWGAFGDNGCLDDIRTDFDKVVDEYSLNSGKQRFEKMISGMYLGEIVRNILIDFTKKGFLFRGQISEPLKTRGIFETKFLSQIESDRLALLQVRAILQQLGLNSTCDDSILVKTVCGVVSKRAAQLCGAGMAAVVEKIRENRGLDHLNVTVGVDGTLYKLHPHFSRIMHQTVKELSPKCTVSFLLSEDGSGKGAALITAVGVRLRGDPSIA
Protocol: as §3

IgG = assay: Real time surface plasmon resonance, immobilized IgG (control); type: binding, rabbit; settings: SPR control
Protocol: as §3

HK-I [3] = molecular target: T1, HK-I; assay: Effect of HK-I on channel activity of bilayer-reconstituted VDAC1; type: biochemical; settings: HK-I (28 mU/ml), voltage step 0 to +40 mV
Protocol: (§4) Briefly, PLB were prepared from soybean asolectin dissolved in n-decane (50 mg/ml) in a chamber containing 10 mM Hepes/KOH, pH 7.4 and 0.5 or 1M NaCl (cis/trans). Only PLBs with a resistance greater than 100 GΩ were used. Purified VDAC (about 1 ng) was added to the chamber defined as the cis side. After insertion of one or more channels into the PLB, excess protein was removed by perfusion of the cis chamber with 20 volumes of a same solution. Currents were recorded under voltage-clamp mode using a Bilayer Clamp amplifier (Warner Instruments, Hamden, Conn.). Currents were measured with respect to the trans side of the membrane (ground). The currents were low-pass filtered at 1 kHz, using a Bessal filter (Frequency Devices, Haverhill, Mass.) and digitized on-line using a Digidata 1200 interface board and pCLAMP 6 software (Axon Instruments). Sigma Plot 2000 scientific software was used for data analyses. Experiments were performed at 23-25° C.

[4] = system: hVDAC1-shRNA T-REx-293 cells; assay: Cytochrome c release induced by staurosporine (STS); type: cell-based, human; settings: STS (1.25 μM) for 5 h; Western blotting
[5] = system: hVDAC1-shRNA-T-REx-293 cells; assay: Restoration of cell growth in T-REx-293 cells silenced for hVDAC1; type: cell-based, human; settings: expression under tetracycline control; Trypan-Blue counting
Protocol: as §2

[6] = Channel conductance of purified VDAC reconstituted into planar lipid bilayer; type: biochemical
Protocol: as §4

[7] = system: T-REx-293 cells silenced for hVDAC1 expression; assay: Cell death triggered by tetracycline-induced over-expression; type: cell-based, human; settings: over-expression induced by 2.5 μg/ml tetracycline
Protocol: as §1, §2

Chain of Bcl2 (P10415 whole entry, species assumed): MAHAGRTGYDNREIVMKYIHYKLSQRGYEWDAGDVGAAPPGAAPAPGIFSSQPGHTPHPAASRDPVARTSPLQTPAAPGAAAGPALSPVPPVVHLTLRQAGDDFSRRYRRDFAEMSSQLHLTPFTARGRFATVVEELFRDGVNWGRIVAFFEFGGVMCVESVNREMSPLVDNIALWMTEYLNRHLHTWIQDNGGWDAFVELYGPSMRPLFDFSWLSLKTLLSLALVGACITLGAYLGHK

Molecule: COc1cc(/C=C/C(=O)CC(=O)/C=C/c2ccc(O)c(OC)c2)ccc1O [curcumin]
cell death in cells expressing native mVDAC1 [1]: induced death

Molecule: CN[C@@H]1C[C@H]2O[C@@](C)([C@@H]1OC)n1c3ccccc3c3c4c(c5c6ccccc6n2c5c31)C(=O)NC4 [Staurosporine]
cell death in cells expressing native mVDAC1 [1]: induced death

Molecule: O=[As]O[As]=O (stereo not shown) [As2O3]
cell death in cells expressing native mVDAC1 [1]: induced death

The next lines start with results.

binding to immobilized Bcl2 (Bcl2): did not interact
binding to immobilized HK-I (HK-I [2]): did not interact
Molecule: LP3: VDAC1-based peptide representing a loop (E157 to T174, 18 amino acids) predicted to face the intermembranal space (ETAKSRVTQSNFAVGYKT)

binding to immobilized Bcl2 (Bcl2): strongly bound
binding to immobilized HK-I (HK-I [2]): strongly bound
binding to IgG-immobilized chip (IgG): no signal
Molecule: VDAC1 N-terminal peptide: a peptide corresponding to the N-terminal region of VDAC1 (MAVPPTYADLGKSARDVFTKGYGFGL)

effect of HK-I on channel activity (HK-I [3]): no effect
B1: Δ(1-26)mVDAC1: N-terminal truncated mouse VDAC1 polypeptide lacking amino acids 1-26 (protein)
chain: IKLDLKTKSENGLEFTSSGSANTETTKVNGSLETKYRWTEYGLTFTEKWNTDNTLGTEITVEDQLARGLKLTFDSSFSPNTGKKNAKIKTGYKREHINLGCDVDFDIAGPSIRGALVLGYEGWLAGYQMNFETSKSRVTQSNFAVGYKTDEFQLHTNVNDGTEFGGSIYQKVNKKLETAVNLAWTAGNSNTRFGIAAKYQVDPDACFSAKVNNSSLIGLGYTQTLKPGIKLTLSALLDGKNVNAGGHKLGLGLEFQA
cytochrome c release into the cytosol [4]: no cytochrome c release
cell growth in cells silenced for hVDAC1 [5]: restored cell growth
maximal conductance ([6]; at 1M NaCl): 4 nS
voltage dependence of conductance ([6]; planar lipid bilayer, FIG. 4): no voltage dependence
sensitivity of expressing cells to induced apoptosis ([1]; curcumin (100 μM), As2O3 (60 μM) or STS (1.25 μM)): resistant
cell death on over-expression [7]: continue to grow over 8 days
apoptotic cell death ([7]; over 8 days): 5-8%
